From PMC4102245, “A molecular model for the role of SYCP3 in meiotic chromosome organisation” (eLife, 2014)
Values belong to the molecule of their own block, whether it stands above or below them.

Key:
[1] = biological target: SYCP3_(ΔCt6) (human SYCP3 amino acids 1–230) (human) (UniProt Q8IZU3); assay: SEC-MALS; Superdex 200 Increase 10/300 GL, 20 mM Tris pH 8.0, 500 mM KCl; oligomer size of the eluted peak
[2] = biological target: SYCP3_(ΔNt6) (full length human SYCP3 with 69-EVQNML-74 mutated to alanines) (human) (UniProt Q8IZU3); assay: as above
[3] = biological target: the molecule itself; assay: as above
[4] = biological target: the molecule itself; assay: SEC-MALS; Superdex 200 10/300 GL, 100 μl of 2–3 mg/ml, 20 mM Tris pH 8.0, 500 mM KCl, 25°C; oligomer size of the eluted peak
[5] = biological target: the molecule itself; assay: SEC-MALS; Superdex 200 10/300 GL, 100 μl of 2–3 mg/ml, 20 mM Tris pH 8.0, 150 mM KCl, 25°C; oligomer size of the eluted peak
SYCP3 dCt6 WT = biological target: T1, SYCP3 dCt6 WT (human, UniProt Q8IZU3 1-230); assay: fluorescence anisotropy; Kd per SYCP3 tetramer; 20 mM Tris pH 8.0, 150 mM KCl; FA at 25 C with 25 nM DNA (0-20 uM protein); EMSA 5 min at 4 C with 18.7 uM (per bp) DNA (0-40 uM protein), 0.5% agarose, 0.5x TBE; settings: protein: recombinant; tags: N-terminal His6, TEV-cleaved; chain copies: 4; label: 5' FAM
T1 sequence: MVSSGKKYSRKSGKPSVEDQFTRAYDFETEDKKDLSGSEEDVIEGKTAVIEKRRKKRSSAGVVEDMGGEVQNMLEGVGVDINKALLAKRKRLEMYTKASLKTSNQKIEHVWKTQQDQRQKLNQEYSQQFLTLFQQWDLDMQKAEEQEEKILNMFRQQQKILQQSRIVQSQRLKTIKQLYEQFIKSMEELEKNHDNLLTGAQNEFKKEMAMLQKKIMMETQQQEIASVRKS

stoichiometry N [1]: 4
Molecule: SYCP3_(ΔCt6) (human SYCP3 amino acids 1–230) (from UniProt Q8IZU3 1-230) (domain or fragment)

stoichiometry N [2]: 4
Molecule: SYCP3_(ΔNt6) (full length human SYCP3 with 69-EVQNML-74 mutated to alanines) (from UniProt Q8IZU3 1-236)

B1: SYCP3_(ΔCt6) ΔBP1 (amino acids 1–230, BP1 52-KRRKKR-57 mutated to alanines) (domain or fragment, human, UniProt Q8IZU3 1-230, looked up)
chain: MVSSGKKYSRKSGKPSVEDQFTRAYDFETEDKKDLSGSEEDVIEGKTAVIEAAAAAASSAGVVEDMGGEVQNMLEGVGVDINKALLAKRKRLEMYTKASLKTSNQKIEHVWKTQQDQRQKLNQEYSQQFLTLFQQWDLDMQKAEEQEEKILNMFRQQQKILQQSRIVQSQRLKTIKQLYEQFIKSMEELEKNHDNLLTGAQNEFKKEMAMLQKKIMMETQQQEIASVRKS
notes: Synaptonemal complex protein 3 (SYCP3), human, Swissprot Q8IZU3, amino acids 1-230 with basic patch 1 mutated to alanines; source: E. coli BL21(DE3) Rosetta2, purified as described for wild type SYCP3_(ΔCt6); not shown: His6, N-terminal, cleaved
stoichiometry N [3]: 4

B2: SYCP3_(ΔCt6) ΔBP2 (amino acids 1–230, BP2 88-KRKR-91 mutated to alanines) (domain or fragment, human, UniProt Q8IZU3 1-230, looked up)
chain: MVSSGKKYSRKSGKPSVEDQFTRAYDFETEDKKDLSGSEEDVIEGKTAVIEKRRKKRSSAGVVEDMGGEVQNMLEGVGVDINKALLAAAAALEMYTKASLKTSNQKIEHVWKTQQDQRQKLNQEYSQQFLTLFQQWDLDMQKAEEQEEKILNMFRQQQKILQQSRIVQSQRLKTIKQLYEQFIKSMEELEKNHDNLLTGAQNEFKKEMAMLQKKIMMETQQQEIASVRKS
notes: Synaptonemal complex protein 3 (SYCP3), human, Swissprot Q8IZU3, amino acids 1-230 with basic patch 2 mutated to alanines; source: E. coli BL21(DE3) Rosetta2, purified as described for wild type SYCP3_(ΔCt6); not shown: His6, N-terminal, cleaved
stoichiometry N [3]: 4

B3: SYCP3_(ΔCt6) ΔBP1+2 (amino acids 1–230, BP1 and BP2 mutated to alanines) (domain or fragment, human, UniProt Q8IZU3 1-230, looked up)
chain: MVSSGKKYSRKSGKPSVEDQFTRAYDFETEDKKDLSGSEEDVIEGKTAVIEAAAAAASSAGVVEDMGGEVQNMLEGVGVDINKALLAAAAALEMYTKASLKTSNQKIEHVWKTQQDQRQKLNQEYSQQFLTLFQQWDLDMQKAEEQEEKILNMFRQQQKILQQSRIVQSQRLKTIKQLYEQFIKSMEELEKNHDNLLTGAQNEFKKEMAMLQKKIMMETQQQEIASVRKS
notes: Synaptonemal complex protein 3 (SYCP3), human, Swissprot Q8IZU3, amino acids 1-230 with both basic patches mutated to alanines; source: E. coli BL21(DE3) Rosetta2, purified as described for wild type SYCP3_(ΔCt6); not shown: His6, N-terminal, cleaved
stoichiometry N [3]: 4

B4: SYCP3FL (full length human SYCP3, amino acids 1–236) (natural protein, UniProt Q8IZU3 1-236, looked up)
chain: MVSSGKKYSRKSGKPSVEDQFTRAYDFETEDKKDLSGSEEDVIEGKTAVIEKRRKKRSSAGVVEDMGGEVQNMLEGVGVDINKALLAKRKRLEMYTKASLKTSNQKIEHVWKTQQDQRQKLNQEYSQQFLTLFQQWDLDMQKAEEQEEKILNMFRQQQKILQQSRIVQSQRLKTIKQLYEQFIKSMEELEKNHDNLLTGAQNEFKKEMAMLQKKIMMETQQQEIASVRKSLQSMLF
notes: Synaptonemal complex protein 3 (SYCP3), human, Swissprot Q8IZU3, amino acids 1-236 (full length); The methods tell no TEV cleavage for SYCP3FL (only Ni-NTA and buffer exchange), so the His6 tag may have been kept; the printed theoretical tetramer size is 111 kDa; also called full length SYCP3; source: E. coli BL21(DE3) Rosetta2, purified (Ni-NTA, buffer exchange into 20 mM Tris pH 8.0, 500 mM KCl)
stoichiometry N [4]: 4

B5: SYCP3_(Core) (human SYCP3 amino acids 66–230) (domain or fragment, UniProt Q8IZU3 66-230, looked up)
chain: MGGEVQNMLEGVGVDINKALLAKRKRLEMYTKASLKTSNQKIEHVWKTQQDQRQKLNQEYSQQFLTLFQQWDLDMQKAEEQEEKILNMFRQQQKILQQSRIVQSQRLKTIKQLYEQFIKSMEELEKNHDNLLTGAQNEFKKEMAMLQKKIMMETQQQEIASVRKS
notes: Synaptonemal complex protein 3 (SYCP3), human, Swissprot Q8IZU3, amino acids 66-230; Cloned in pHAT4 with an N-terminal TEV-cleavable His6 tag; homotetramer by SEC-MALS, AUC and crystal structure; also called SYCP_(Core); not shown: His6, N-terminal, cleaved
stoichiometry N [5]: 4

B6: 60 bp FAM-dsDNA (dsDNA)
DNA 1: ATGGTGTGTGTAGGTTAATGTGAGGAGGAGAGGTGAAGAAGGAGGAGAGAAGAAGGAGGC
DNA 2: GCCTCCTTCTTCTCTCCTCCTTCTTCACCTCTCCTCCTCACATTAACCTACACACACCAT
Kd (SYCP3 dCt6 WT): 200 nM
